B1: E9.1 (antibody, human IgG1, V domains shown)
VH: EVQLQESGPGLVKPSETLSLTCTVSGGSISSSSYYWGWIRQPPGKGLEWIGDIYYTGSTYYNPSLKSRVTISVDTSKNQFSLKLSSVTAADTAVYYCAREDVILRGGSDYWGQGTLVTVSS
VL: SYELTQPPSVSVSPGQTASITCSGQRLGDKYASWYQQKPGQSPVLVIYEDSKRPSGIPERFSGSNSGDTATLTISGTQPMDEADYYCQAWDRDTGVFGYGTRVTVLG
B2: E9 (antibody, IgG1, V domains shown)
VH: B1 VH
VL: SYELTQPPSVSVSPGQTASITCSGQRLGDKYASWYQQKPGQSPVLVIYEDSKRPSGIPERFSGSNSGDTATLTISGTQPMDEADYYCQAWDRDTGVFGYGTRVTVL
B3: E9-SE6 (antibody, V domains shown)
VH: B1 VH with S15G, P42A, S81Y, T88R, A90E
VL: B1 VL with S1L, E3V, P79T, Y86L, Y99G, R102K
B4: E9.71 (antibody, V domains shown)
VH: B1 VH with E100Q, D101A, V102L, I103A, L104M, R105G, Y110K
VL: B2 VL with R102K
B5: E9.19 (antibody, V domains shown)
VH: B1 VH with E100F, I103S, R105G, Y110T
VL: B2 VL with R102K
B6: A10 (antibody, IgG1, V domains shown)
VH: EVQLLESGGGLVKSGGSLRLSCAASGFTFRSHWMSWVRQAPGKGLEWVAIISYDGSNKYSADSVKGRFTISRDNSKNTLYLQLNSLRAEDTAVYYCAKAGGGNVGFDIWGQGTMVTVSS
VL: LPVLTQPPSVSVSPGQTASITCSADKLGTKYVSWYQQKPGQSPVLVIYQDAKRPSGIPERFSGSNSGNTATLTISGTQTMDEADYLCQSWDRSDVVFGGGTKVTVL
B7: E9-FR1 (antibody, V domains shown)
VH: EVQLVQSGTEVKKPGESLKISCKVSGGSISSSSYYWGWIRQMPGKGLEWIGDIYYTGSTYYNPSLKSQVTISVDTSFNTFFLQWSSLKASDTAMYYCAREDVILRGGSDYWGQGTMVTVSS
VL: EYVLTQSPATLSVSPGERATLSCSGQRLGDKYASWYQQKPGQSPRLVIYEDSKRPSDIPARFSGSNSGDEATLTISSLQSEDFAVYYCQAWDRDTGVFGQGTRLEIKR
B8: E9-FR2 (antibody, V domains shown)
VH: EVTLRESGPALVKPTQTLTLTCTVSGGSISSSSYYWGWIRQPPGKGLEWIGDIYYTGSTYYNPSLKSRVTISVDTSKNQFVLTMTNMDPVDTATYYCAREDVILRGGSDYWGQGTTVTVSS
VL: DYVLTQSPDSLAVSLGERATINCSGQRLGDKYASWYQQKPGQSPKLVIYEDSKRPSGIPDRFSGSNSGDDATLTISSLQAEDVAVYYCQAWDRDTGVFGGGTKVEIKR
B9: E9.2B (antibody, V domains shown)
VH: B1 VH with S33N, Y54N, T56N, S58N, D101A, I103A, R105G, S108A, Y110D
VL: B2 VL with Q25E, R26G, A32V, K52T, R92S, D93E, Y99S, R102K

This note sets out measurements from patent publication US20200255508A1.

Substitutions are numbered along the chain they refer to.

As a reminder, the Kd is the free concentration of one partner at which half of the binding sites on the other are occupied at equilibrium, for simple one-to-one binding. In general, koff refers to a measure of how fast the partners let go of each other. Usually kon stands for the second-order rate constant of association. In general, EC50 refers to the concentration at which the effect is half-maximal. A word on the IC50: it is the point on the concentration scale where inhibition reaches its midpoint.

The first experiment addresses cynomolgus monkey DLL4 extracellular domain (cynomolgus monkey). In words: Biacore SPR. On the technique in general: SPR reads the build-up and loss of mass on a sensor chip optically.
The molecule B1 gave a Kd of 4.08 nM.

In turn, B2 registered a Kd of 4.2 nM, a koff of 7.4e-05 s⁻¹ and a kon of 18000 M⁻¹ s⁻¹.

Molecule B3 had a dissociation constant (Kd) of 6.55 nM.

B4: the Kd is 0.49 nM, the koff came out at 3.79e-05 s⁻¹ and the kon stood at 77500 M⁻¹ s⁻¹.

The molecule B5 yielded a Kd of 0.25 nM, a koff of 4.86e-05 s⁻¹ and an on-rate (kon) of 192000 M⁻¹ s⁻¹.

Molecule B6 showed a Kd of 7.8 nM, a koff of 0.00015 s⁻¹ and a kon of 19000 M⁻¹ s⁻¹.

For a further experiment the target is unchanged. In words: Biacore SPR. The source holds these as a separate data set.
Consider B1, for which the Kd was found to be 0.47 nM.

B7 had a Kd of 0.74 nM.

B8 returned a dissociation constant (Kd) of 0.3 nM.

The target is the same in a further experiment. In words: capture ELISA. (In general: An ELISA detects its analyte on a solid surface through an enzyme-linked reagent.)
As to B2, the half-maximal effective concentration (EC50) is 0.4 nM.

For B4, the concentration giving a half-maximal response (EC50) was found to be 0.44 nM.

The molecule B5 had a half-maximal effective concentration (EC50) of 0.46 nM.

In the case of B9, the EC50 amounted to 0.45 nM.

B6 displayed an EC50 of 0.44 nM.

The target of another experiment is cyno DLL4-his (cynomolgus monkey). The experiment can be described thus: ELISA on DLL4-his.
Molecule B1 gave an EC50 of 0.24 nM.

For B3, the EC50 was found to be 0.13 nM.

The next experiment shares this target. The experiment can be described thus: ELISA on DLL4-his. This is another data set of the same source.
In turn, B1 returned a half-maximal effective concentration (EC50) of 0.035 nM.

Molecule B7 came in with a half-maximal effective concentration (EC50) of 0.12 nM.

On to B8, for which the EC50 stood at 0.12 nM.

A further experiment concerns the target cynomolgus monkey DLL4 extracellular domain (cynomolgus monkey). In words: competition ELISA, competitor huNotch-1.
For the molecule B2, the 50% inhibitory concentration (IC50) was found to be 2.1 nM.

Take B4: the IC50 amounted to 2 nM.

For B5, the 50% inhibitory concentration (IC50) turned out to be 1.5 nM.

The molecule B9 showed an IC50 of 2.2 nM.

Consider B6, for which the half-inhibitory concentration (IC50) amounted to 5.1 nM.
